Data from patent publication US20240082360A1, “METHODS TO TREAT HEPATITIS DELTA VIRAL INFECTIONS” (Eiger Biopharmaceuticals, Inc., priority 2019, published 2024).

B1: Lambda: pegylated form of interferon lambda, a type III interferon signalling through interferon lambda receptors (protein, UniProt Q8IU54 20-200, looked up)
Interferon lambda-1: GPVPTSKPTTTGKGCHIGRFKSLSPQELASFKKARDALEESLKLKNWSCSSPVFPGNWDLRLLQVRERPVALEAELALTLKVLEAAAGPALEDVLDQPLHTLHHILSQLQACIQPQPTAGPRPRGRLHHWLHRLQEAPKKESAGCLEASVTFNLFRLLTRDLKYVADGNLCLRTSTHPEST
modifications: PEG (peginterferon lambda-1a)
notes: pegylated form of interferon lambda, a type III interferon signalling through interferon lambda receptors

Key:
HDV [1] = conditions: cited from earlier work
HBV = conditions: cited from earlier work
HDV [2] = conditions: Lambda for 48 weeks; patients with HDV and compensated liver disease; cited from earlier work
HDV [3] = test: Phase 2 LIMT study: Lambda for 48 weeks in HDV patients, with two liver-biopsy case reports; format: in vivo, human; parameters: key to fibrosis score (ISHAK) in liver biopsy following Lambda treatment / fibrosis score (ISHAK) in post-treatment biopsy: F5: incomplete cirrhosis; F1: mild portal fibrosis
From the text: See also International Application No. PCT/US2019/048038 for description of this therapy. Impact of Lambda therapy on liver histology was not assessed in the LIMT study. In this example, two case reports of regression of liver fibrosis following treatment in HDV patients from the LIMT study are provided.
Two patients from the LIMT study, who had liver biopsies prior to study randomization, treated with subcutaneous injections of Lambda 180 mcg once weekly for 48 weeks, followed by a 24 week follow-up period, were evaluated with liver biopsy 18 months after last Lambda injection. Liver biopsies, staged according to the ISHAK scoring system, were compared with results of historical biopsies of the patients. HDV RNA viral load and ALT levels were assessed at baseline (BL), end of treatment (EOT) and end of study (EOS). Fibroscan® was performed at BL and EOS.
FibroScan is a specialized ultrasound machine that measures fibrosis (scarring) and steatosis (fatty change) in the liver. The Fibroscan device (Echosens) works by measuring shear wave velocity. In this technique, a 50-MHz wave is passed into the liver from a small transducer on the end of an ultrasound probe. The probe also has a transducer on the end that can measure the velocity of the shear wave (in meters per second) as this wave passes through the liver. The shear wave velocity can then be converted into liver stiffness, which is expressed in kilopascals. Essentially, the technology measures the velocity of the sound wave passing through the liver and then converts that measurement into a liver stiffness measurement; the entire process is often referred to as liver ultrasonographic elastography. See additional discussion in Afdhal, N.H., Gastroenterol Hepatol (N Y). 8(9): 605-607 (2012).

HDV [4] = conditions: HBV/HDV co-infected mice; four weeks; cited from earlier work

Molecule | patients with undetectable HDV RNA (HDV [1]; 24 weeks post-treatment follow-up) | HDV patients with undetectable HDV RNA (HDV [1]; end of 48 weeks treatment, 180 mcg monotherapy, Robogene 2.0 assay) | difference between pegylated interferon alfa and pegylated interferon lambda treatment (HBV; end of the treatment period) | declines in viremia as compared to pegylated interferon alfa (HBV; midpoint of treatment (24 weeks)) | virologic rebound (HBV; post-treatment, versus pegylated interferon alfa) | durable virologic response (HDV RNA below limit of quantification at 24 weeks post-treatment) (HDV [2]) | HDV RNA level at EOS (HDV [3]; Patient 1, 24 week follow-up after 48 weeks Lambda, BL 3.7 log10) | Fibroscan score at EOS (HDV [3]; Patient 1, BL 20 kPa) | ALT at EOS (HDV [3]; Patient 1, BL 169 U/L) | ALT at EOT (HDV [3]; Patient 1, BL 169 U/L) | HDV RNA level at EOT (HDV [3]; Patient 1, Lambda 180 mcg once weekly 48 weeks, BL 3.7 log10) | fibrosis score (ISHAK) in liver biopsy following Lambda treatment (HDV [3]; Patient 1, biopsy 18 months after last Lambda injection, historical biopsy F5) | HDV RNA at EOS (HDV [3]; Patient 2, 24 week follow-up after 48 weeks Lambda, BL 4.9 log10) | Fibroscan score at EOS (HDV [3]; Patient 2, BL 7.7 kPa) | ALT at EOS (HDV [3]; Patient 2, BL 159 U/L) | ALT at EOT (HDV [3]; Patient 2, BL 159 U/L) | HDV RNA at EOT (HDV [3]; Patient 2, Lambda 180 mcg once weekly 48 weeks, BL 4.9 log10) | fibrosis score (ISHAK) in post-treatment biopsy (HDV [3]; Patient 2, biopsy 18 months after last Lambda injection, historical biopsy F4 (marked bridging fibrosis)) | reduction in HDV-RNA levels (HDV [4])
interferon alfa | 0% | 13% | – | – | – | – | – | – | – | – | – | – | – | – | – | – | – | – | –
B1 | – | – | no difference | more pronounced declines in viremia | greater virologic rebound | 36% | 2.6 log10 | 9.9 kPa | 54 U/L | 55 U/L | undetectable | F1 | 3.6 log10 | 11.1 kPa | 162 U/L | 44 U/L | undetectable | F1 | 1.5 log
